From patent publication US20130034559A1 (AstraZeneca / MedImmune, published 2013)

T1: human B7-DC on 293T cells (human, UniProt Q9BQ51 20-273)
T1 construct: whole, on cells; also called PD-L2
T1 sequence (looked up): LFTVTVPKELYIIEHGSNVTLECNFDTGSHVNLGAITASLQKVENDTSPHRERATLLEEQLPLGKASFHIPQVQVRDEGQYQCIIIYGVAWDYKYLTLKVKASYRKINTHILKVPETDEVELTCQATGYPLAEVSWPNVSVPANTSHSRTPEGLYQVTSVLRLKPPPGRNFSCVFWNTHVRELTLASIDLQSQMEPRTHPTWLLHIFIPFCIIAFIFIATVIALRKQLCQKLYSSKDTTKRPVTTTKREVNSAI


Experiments:
[1] = target: T2, mouse B7-H1 on J558 cells (mouse, UniProt Q9EP73 19-290); test: FACS on J558 cells expressing mouse B7-H1
T2 construct: whole, on cells
Method: (§1) The ability of the purified antibodies to bind to human B7-H1, B7-DC, mouse B7H1 and cynomolgus monkey B7-H1 was determined by FACS analysis. […] Mouse J558 cells expressing mouse B7-H1 were obtained from ATCC (catalog #TIB-6). Cells were resuspended in PBS containing 2% FBS (FACS buffer) and seeded at 50000 cells/well into V-bottomed plates. Anti-B7-H1 and isotype control antibodies diluted in FACS buffer were added at a final concentration of 5 μg/ml and plates were incubated for 1 h at 4° C. […] Mouse anti-human B7-DC (PD-L2) antibody (R&D systems cat #MAB1224, detected with goat anti-mouse Fc Cy5, Jackson Immunoresearch) was used as a positive control for B7-DC expression. PE-conjugated rat anti-mouse B7-H1 antibody (eBioscience, clone M1H5, detected with goat anti-rat Fc Cy5, Jackson Immunoresearch) was used as a positive control for mouse B7-H1 expression.

[2] = target: T1, human B7-DC on 293T cells; test: FACS on 293T cells transfected with human B7-DC
Method: as §1

[3] = target: T2, mouse B7-H1 on J558 cells; test: FACS, 5 µg/ml antibody, J558 cells expressing mouse B7-H1
Method: as §1

[4] = target: T3, human B7-H1 expressed on cells (human, UniProt Q9NZQ7 19-290); test: FACS, 5 µg/ml antibody, 293T cells transfected with human B7-H1
T3 construct: whole, on cells; also called PD-L1; huB7-H1
Method: as §1

[5] = target: T4, cynomolgus monkey B7-H1 expressed on cells (cynomolgus monkey, UniProt G7PSE7 19-290); test: FACS, 1 µg/ml antibody, anti-CD3-activated cynomolgus monkey T cells
T4 construct: whole, on cells; also called cyno B7-H1; cynomologus B7-H1
Method: For activation of cynomolgus monkey T cells 96-well high binding plates were incubated with 100 μl/well of goat anti-mouse IgG Fc antibody diluted at 1 ug/ml in PBS at 4 C overnight. […] Cynomolgus monkey PBMC were isolated from peripheral blood (Bioreclamation, catalog #CYNWBCPT). Anti-CD3 mAb coated plates were washed with PBS and isolated PBMC were added in 200 ul of ICM media at ˜200000 cells/well and cultured for 72 hours. Cells were then harvested, washed in FACS buffer and mixed with diluted purified anti-B7-H1 antibodies or irrelevant human IgG2 or IgG4 antibodies at a final concentration of 1 ug/ml in 96-well V-bottom assay plate (50 ul/well). […] Cells were incubated for 1 hour at 4° C. before being washed again with FACS buffer and being read on a FACSCalibur instrument. Monkey T lymphocyte population was selected for analysis based on forward and side scatter as well as positive staining for CD3 marker and negative staining for 7-AAD.

[6] = target: T3, human B7-H1 expressed on cells; test: FACS, 1 µg/ml antibody, anti-CD3-activated human T cells
Method: 96-well high binding plates were incubated with 100 μl/well of anti-CD3 antibody diluted at 1 ug/ml in PBS (OKT3 clone, eBioscience, catalog #160037) at 4 C overnight. Human T cells were isolated from frozen leukopack using T cell enrichment kit (StemCell Technologies, catalog #19051). Anti-CD3 mAb coated plates were washed with PBS and purified T cells were added in 200 ul of ICM media at 360000 cells/well and cultured for 72 hours. T cells were then harvested, washed in FACS buffer and mixed with diluted purified anti-B7-H1 antibodies or irrelevant human IgG2 or IgG4 antibodies at final concentration of 1 ug/ml in 96-well V-bottom assay plate (50 ul/well). […] Cells were incubated for 30 min at 4° C. before being washed again with FACS buffer and being read on a FACSCalibur instrument. Live lymphocyte population was selected for analysis based on forward and side scatter as well as negative staining for 7-AAD.

[7] = target: T4, cynomolgus monkey B7-H1 expressed on …; test: FMAT, hybridoma supernatant, 293T cells expressing cynomolgus monkey B7-H1
Method: (§2) Immediately after plating, 10 μl/well of hybridoma supernatants were added and plates incubated for 1.5 hr at room temperature.

[8] = target: T3, human B7-H1 expressed on cells; test: FACS competition: inhibition of biotinylated PD-1/Fc (10 ug/ml) binding to human B7-H1 on ES-2 cells
Method: Briefly, 50000 cells/well were plated in 50 μl of PBS into wells of a 384-well tissue culture plate (Corning Costar, catalog #3712). Next, 50 μl/well of a diluted monoclonal antibody was added at final concentration of […], 0.00016 nM and plates were incubated at 4 C for 1 hour. […] Cells were washed once and 100 μl/well of Cy5-conjugated streptavidin was added and plates were incubated at 4 C for 15 min before being washed again with PBS containing 2% FCS and being read on a FACSCalibur instrument.

[9] = target: T3, human B7-H1 expressed on cells; test: FMAT, hybridoma supernatant, 293T cells expressing human B7-H1
Method: as §2

[10] = target: T1, human B7-DC on 293T cells; test: FACS, 5 µg/ml antibody, 293T cells transfected with human B7-DC
Method: as §1

[11] = target: T3, human B7-H1 expressed on cells; test: cell ELISA: biotinylated PD-1/Fc (1.25 ug/ml) on CHO-huB7-H1 cells after hybridoma supernatant (1:5); 0% = 100% inhibition
Method: 25000 cells/well were plated in 50 μl of media into wells of a 384-well tissue culture plate (Corning Costar, catalog #3712). Next day, 50 μl/well of diluted (1:5) hybridoma supernatant was added and plates were incubated at 4 C for 1 hour on a shaker. […] Cells were washed and fixed in 100 ul of PBS containing 3.7% formaldehyde and 3% bovine serum albumin for 20 min at room temperature. Cells were washed and incubated in 100 ul of PBS containing 0.6% H2O2 and 3% bovine serum albumin for 10 min at room temperature. Cells were washed and incubated in 50 μl of horseradish peroxidase-conjugated streptavidin diluted at 1:4000 for 30 min at 4° C. Cells were washed before signal detection.

T2 sequence (Q9EP73 19-290): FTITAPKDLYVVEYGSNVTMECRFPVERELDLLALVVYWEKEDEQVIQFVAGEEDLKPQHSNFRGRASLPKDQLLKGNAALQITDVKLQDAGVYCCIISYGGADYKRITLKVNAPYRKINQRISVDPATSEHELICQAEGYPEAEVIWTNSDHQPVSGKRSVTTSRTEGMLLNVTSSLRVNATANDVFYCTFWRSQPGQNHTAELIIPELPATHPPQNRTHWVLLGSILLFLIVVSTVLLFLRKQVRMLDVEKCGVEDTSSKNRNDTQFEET
T4 sequence (G7PSE7 entry or part of it): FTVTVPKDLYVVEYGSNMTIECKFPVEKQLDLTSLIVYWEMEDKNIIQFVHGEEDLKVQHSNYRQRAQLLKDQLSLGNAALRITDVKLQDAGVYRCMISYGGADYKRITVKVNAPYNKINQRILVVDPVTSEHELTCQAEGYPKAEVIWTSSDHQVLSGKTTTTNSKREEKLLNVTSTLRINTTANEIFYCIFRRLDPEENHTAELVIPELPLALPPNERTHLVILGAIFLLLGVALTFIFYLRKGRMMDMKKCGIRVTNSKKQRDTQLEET
T3 sequence (Q9NZQ7 19-290): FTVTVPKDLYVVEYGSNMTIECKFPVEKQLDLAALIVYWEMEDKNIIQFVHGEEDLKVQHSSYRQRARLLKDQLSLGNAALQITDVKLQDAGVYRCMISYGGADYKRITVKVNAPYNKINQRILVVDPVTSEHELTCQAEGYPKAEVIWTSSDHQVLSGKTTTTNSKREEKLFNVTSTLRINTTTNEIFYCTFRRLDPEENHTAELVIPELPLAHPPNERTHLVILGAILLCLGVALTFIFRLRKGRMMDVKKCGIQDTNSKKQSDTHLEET

Row | Binder | binding result [1] | binding result [2] | geo mean [3] | geo mean [4] | geo mean [5] | geo mean [6] | Count [7] | FL1 [7] | FL1 × count [7] | IC50 [8] | Count [9] | FL1 [9] | FL1 × count [9] | geo mean [10] | PD1-Fc binding to CHO-huB7-H1 cells (% of max) [11]
1 | 3.15G8 (antibody, IgG4, V domains shown, also called mAb 3.15G8) VH: EVQLVESGGGLVQPGGSLRLSCAASGFTFSSYWMSWVRQAPGKGLEWVANIKQDGGEKYYVDSVKGRFTISRDNAKNSLFLQMNSLRAEDTAVYYCARVQLYSDYFDYWGQGTLVTVSS VL: DIQMTQSPSSVSASVGDRVTITCRASQGISSWLAWYQQKSGKAPKLLIYAASGLQSGVPSRFSGSGSGTDFTLTISSLQPEDLATYYCQQSHSLPPTFGQGTKVEIK | no binding (tested: 5 µg/ml) | no binding (tested: 5 µg/ml) | 3.2 | 1180 | 92.8 | 48 | 64 | 8650 | 553000 | 0.148 nM | 22 | 8810 | 194000 | 10.1 | 4 % of max
2 | 2.20A8 (antibody, IgG2, V domains shown, also called mAb 2.20A8) VH: EVQLLESGGGLVQPGGSLRLSCAASGFTFSNYAMSWVRQAPGKGLEWVSAIRGSGGSTYYADSVKGRFTISRDNSKNTLYLQMNSLRAEDTAVYYCAKDLHYDSSGYLDYWGQGTLVTVSS VL: DIQMTQSPSSVSASVGDRVTITCRASQGIRSWLAWYQQKPGKAPKLLIYAISRLQSGVPSRFSGSGSGTDFTLTISSLQPEDFATYYCQQANSFPLTFGGGTKVEIK | no binding (tested: 5 µg/ml) | no binding (tested: 5 µg/ml) | 3.3 | 463 | 80.7 | 41 | 65 | 7930 | 515000 | 0.198 nM | 34 | 10300 | 350000 | 9.5 | 0 % of max
3 | 2.14H9 (antibody, IgG2, V domains shown, also called mAb 2.14H9) VH: EVQLVESGGGLVQPGGSLRLSCAASGFTFSRYWMSWVRQAPGKGLEWVANIKQDGSEKYYVDSVKGRFTISRDNAKNSLYLQMNSLRAEDTAVYYCAREGGWFGELAFDYWGQGTLVTVSS VL: EIVLTQSPGTLSLSPGERATLSCRASQRVSSSYLAWYQQKPGQAPRLLIYDASSRATGIPDRFSGSGSGTDFTLTISRLEPEDFAVYYCQQYGSLPWTFGQGTEVEIK | no binding (tested: 5 µg/ml) | no binding (tested: 5 µg/ml) | 3 | – | 106 | – | 56 | 6780 | 380000 | – | – | – | – | 11.4 | –
4 | 2.9D10 (antibody, V domains shown, Tested as hybridoma supernatant or purified antibody; also called mAb 2.9D10) VH: EVQLVESGGGLVQPGGSLRLSCAASGFTFSSYWMSWVRQAPGKGLEWVANIKQDGGEQYYVDSVKGRFTISRDNAKNSLYLQMNSLRAEDTAVYYCARDWNYGYYDMDVWGQGTTVTVSS VL: EIVLTQSPGTLSLSPGERATLSCRASQSVSSNYLAWFQQKPGQAPRLLIFGTSSRATGIPDRFSGSGSGTDFTLTISRLEPEDFAVYYCQQYGSSIFTFGPGTKVDIK | no binding (tested: 5 µg/ml) | no binding (tested: 5 µg/ml) | 3.2 | 463 | 107 | 49 | 54 | 5530 | 298000 | 0.109 nM | 22 | 7180 | 158000 | 8.7 | -5 % of max

Further lines, results first:

Row | binding result [1] | binding result [2] | geo mean [3] | geo mean [4] | geo mean [5] | geo mean [6] | Count [7] | FL1 [7] | FL1 × count [7] | IC50 [8] | Count [9] | FL1 [9] | FL1 × count [9] | geo mean [10] | PD1-Fc binding to CHO-huB7-H1 cells (% of max) [11] | Binder
5 | no binding (tested: 5 µg/ml) | no binding (tested: 5 µg/ml) | 3.2 | 754 | 104 | 49 | 59 | 8700 | 513000 | 0.077 nM | 37 | 6980 | 258000 | 10.5 | 0 % of max | 2.7A4 (antibody, IgG2, V domains shown, also called mAb 2.7A4) VH: EVQLVESGGGLVKPGGSLRLSCAASGFTFSTYSMNWVRQAPGKGLEWVSSISSSGDYIYYADSVKGRFTISRDNAKNSLFLQMNSLKAEDTAVYYCARDLVTSMVAFDYWGQGTLVTVSS VL: SYELTQPPSVSVSPGQAARITCSGDALPQKYVFWYQQKSGQAPVLVIYEDSKRPSGIPERFSGSSSGTMATLTISGAQVEDEADYYCYSTDRSGNHRVFGGGTRLTVL
6 | no binding (tested: 5 µg/ml) | no binding (tested: 5 µg/ml) | 3.2 | 1540 | 94.6 | 45 | 66 | 10300 | 682000 | 0.14 nM | 21 | 10900 | 228000 | 9.7 | 5 % of max | 3.18G1 (antibody, V domains shown, also called mAb 3.18G1) VH: EVQLLESGGDLVQPGGSLRLSCAASGFTFNSYAMSWVRQAPGKGLEWVSTISGSGGFTFSADSVKGRFTISRDNSKNTLFLQMNSLRVEDSAVYSCAKVLVGFNNGCWDYWGQGTLVTVSS VL: SYVLTQPPSVSVAPGQTARITCGGNNIGSKSVHWYQQKPGQAPVLVVYDDSDRPSGIPERFSGSNSGNTATLTISRVEAGDEADYYCQVWDSSNDHVVFGGGTKLTVL
